Experimental data published in patent US20160161500A1, “METHOD OF SCREENING AN ANTIBODY” (SAMSUNG ELECTRONICS CO., LTD., priority 2014, published 2016).
One block for each binder: values may come before it.

Target: T1, c-Met on EBC-1 cells (UniProt P08581 25-1390, limits assumed)
T1 construct: whole, on cells; EBC-1 is a human lung cancer line; also called c-Met on the cell surface
Assay: flow cytometry on EBC-1 cells; antibody bound at pH 7.4, cells fixed, then buffers of pH 1.5 to 7.4
Procedure: In order to examine the degree of influence of pH conditions on the binding of anti-c-Met antibody and c-Met, the antibody was reacted with c-Met to form a binding therebetween, and then, treated with buffer with various pH to change the pH conditions, and then, the amount of the antibody which maintain the binding to the antigen (c-Met) at a certain pH was measured.
In particular, EBC-1 cells (ATCC) were counted and seeded in e-tubes at the amount of about 3×10⁵ cells per tube. As a medium, RPMI-1640 (Gibco) was employed. The cell culture was washed with phosphate buffer saline (PBS; pH 7.4) to remove the medium, and treated with each of c-Met antibodies A, B, and C, and c-Met bispecific antibody A, provided in Example 1, at the amount of 1 μg/ml per a tube, and then, kept in ice for 30 minutes. The obtained cells were treated with 4% formaldehyde for 10 minutes to be fixed. After washing with PBS(pH7.4), the cells treated with FACS buffer with various pH (0.2%(v/v) FBS (Fetal bovine serum) in PBS, pH 1.5, 2.0, 2.5, 3.0, 4.0, 5.0, 6.0, or 7.4) and kept in ice for 5 minutes. […] The c-Met antibody attached to cell surface was quantified by Flow cytometry (BD, FACS Cantoll).

T1 sequence (P08581 25-1390 limits assumed): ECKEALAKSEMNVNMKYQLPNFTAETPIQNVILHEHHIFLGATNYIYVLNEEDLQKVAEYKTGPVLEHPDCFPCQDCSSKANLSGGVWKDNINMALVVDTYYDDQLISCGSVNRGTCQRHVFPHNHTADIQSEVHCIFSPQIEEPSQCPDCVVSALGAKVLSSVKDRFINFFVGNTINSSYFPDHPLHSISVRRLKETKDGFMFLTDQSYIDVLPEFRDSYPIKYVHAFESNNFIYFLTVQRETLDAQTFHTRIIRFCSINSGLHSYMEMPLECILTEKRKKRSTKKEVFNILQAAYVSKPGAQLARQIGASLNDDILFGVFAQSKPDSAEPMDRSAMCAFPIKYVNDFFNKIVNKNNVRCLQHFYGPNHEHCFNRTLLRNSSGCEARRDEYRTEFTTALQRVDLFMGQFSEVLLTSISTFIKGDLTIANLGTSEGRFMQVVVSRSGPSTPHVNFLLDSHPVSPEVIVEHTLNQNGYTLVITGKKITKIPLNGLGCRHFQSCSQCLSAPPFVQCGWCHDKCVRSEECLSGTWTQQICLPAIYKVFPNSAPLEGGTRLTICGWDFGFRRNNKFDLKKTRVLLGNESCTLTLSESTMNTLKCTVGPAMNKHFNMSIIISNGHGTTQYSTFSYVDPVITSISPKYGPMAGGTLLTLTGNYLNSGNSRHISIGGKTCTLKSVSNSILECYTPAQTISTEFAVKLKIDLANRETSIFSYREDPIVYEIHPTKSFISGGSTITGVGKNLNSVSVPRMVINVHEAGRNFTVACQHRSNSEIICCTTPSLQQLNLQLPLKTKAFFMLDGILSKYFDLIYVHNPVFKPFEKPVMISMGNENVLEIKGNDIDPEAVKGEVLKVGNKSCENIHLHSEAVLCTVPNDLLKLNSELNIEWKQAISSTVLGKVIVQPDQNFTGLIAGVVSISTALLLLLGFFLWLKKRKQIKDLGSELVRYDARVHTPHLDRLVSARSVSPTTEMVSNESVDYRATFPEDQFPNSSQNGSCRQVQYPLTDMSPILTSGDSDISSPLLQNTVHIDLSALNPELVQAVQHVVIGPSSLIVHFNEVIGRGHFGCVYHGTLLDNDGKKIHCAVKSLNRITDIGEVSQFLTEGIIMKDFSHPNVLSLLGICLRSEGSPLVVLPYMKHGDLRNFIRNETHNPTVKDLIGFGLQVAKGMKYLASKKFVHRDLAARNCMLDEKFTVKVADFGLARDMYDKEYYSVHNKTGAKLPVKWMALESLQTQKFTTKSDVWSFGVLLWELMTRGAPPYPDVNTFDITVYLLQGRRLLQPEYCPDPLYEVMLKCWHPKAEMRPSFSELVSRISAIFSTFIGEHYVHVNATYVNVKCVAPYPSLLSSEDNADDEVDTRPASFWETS

binding result: binds
B1: Anti-c-Met antibody A (antibody, human IgG2, kappa, V domains shown)
VH: EVQLVESGGGLVQPGGSLRLSCAASGFTFTDYYMSWVRQAPGKGLEWLGFIRNKANGYTTEYSASVKGRFTISRDNSKNTLYLQMNSLRAEDTAVYYCARDNWFAYWGQGTLVTVSS
VL: DIQMTQSPSSLSASVGDRVTITCKSSQSLLASGNQNNYLAWYQQKPGKAPKMLIIWASTRVSGVPSRFSGSGSGTDFTLTISSLQPEDFATYYCQQSYSRPYTFGQGTKVEIKR
notes: IgG2 antibody

binding result: binds
B2: Anti-c-Met/anti-EGFR bispecific antibody A (bispecific antibody, human IgG2, kappa)
heavy: EVQLVESGGGLVQPGGSLRLSCAASGFTFTDYYMSWVRQAPGKGLEWLGFIRNKANGYTTEYSASVKGRFTISRDNSKNTLYLQMNSLRAEDTAVYYCARDNWFAYWGQGTLVTVSSASTKGPSVFPLAPCSRSTSESTAALGCLVKDYFPEPVTVSWNSGALTSGVHTFPAVLQSSGLYSLSSVVTVPSSNFGTQTYTCNVDHKPSNTKVDKTVERKCCVECPPCPAPPVAGPSVFLFPPKPKDTLMISRTPEVTCVVVDVSHEDPEVQFNWYVDGVEVHNAKTKPREEQFNSTFRVVSVLTVVHQDWLNGKEYKCKVSNKGLPAPIEKTISKTKGQPREPQVYTLPPSREEMTKNQVSLTCLVKGFYPSDIAVEWESNGQPENNYKTTPPMLDSDGSFFLYSKLTVDKSRWQQGNVFSCSVMHEALHNHYTQKSLSLSPGKGGGGSGGGGSEVQLLESGGGLVQPGGSLRLSCAASGFTFSNYDMSWVRQAPGKCLEWVSGISHSSGSKYYADSVKGRFTISRDNSKNTLYLQMNSLRAEDTAVYYCAKDATPRPLKPFDYWGQGTLVTVSSGGGGSGGGGSGGGGSQSVLTQPPSASGTPGQRVTISCTGSSSNIGNNDVSWYQQLPGTAPKLLIYDDNKRPSGVPDRFSGSKSGTSASLAISGLRSEDEADYYCGSWDASLNAYVFGCGTKLTVLG
light: DIQMTQSPSSLSASVGDRVTITCKSSQSLLASGNQNNYLAWYQQKPGKAPKMLIIWASTRVSGVPSRFSGSGSGTDFTLTISSLQPEDFATYYCQQSYSRPYTFGQGTKVEIKRTVAAPSVFIFPPSDEQLKSGTASVVCLLNNFYPREAKVQWKVDNALQSGNSQESVTEQDSKDSTYSLSSTLTLSKADYEKHKVYACEVTHQGLSSPVTKSFNRGEC
notes: Anti-c-Met antibody A (IgG2) with an anti-EGFR scFv (VH-linker-VL) linked to the C-terminus of its Fc; also called c-Met bispecific antibody A
